Results on four molecules are retold here after US20240352132A1 (JIANGSU HENGRUI PHARMACEUTICALS, published 2024).

Some results are limits rather than exact numbers.

For experiment [1], the target named is T1, HGFR protein extracellular domain with the His tag (human, UniProt P08581 25-932).
T1 construct: also called HGFR-His; human HGFR
Nature of the experiment: SPR Biacore T200, antibody captured on Protein A, antigen in flow, 1:1 fit. How it is done: (§1) The affinity of the test molecule for human EGFR (SEQ ID NO: 42) or human HGFR protein (SEQ ID NO: 43) was determined by Biacore T200 (GE) as follows:
(§2) The antibody molecules were affinity-captured on a Protein A biosensor chip of which antigens flowed through the surface for 180 s, and then the antibody molecules were dissociated for 600 s. The reaction signals were detected in real time using a Biacore T200 instrument to obtain association and dissociation curves. After dissociation was completed for each cycle, the biosensor chip was washed with 10 mM Gly-HCl (pH 1.5) for regeneration. Data were fitted using a 1:1 model, and affinity values of the test molecules were obtained. In this example, the positive control MCLA was a bispecific antibody specifically binding to HGFR and EGFR (see PB8532 in WO2019031965 for specific sequences).
In general terms: Surface plasmon resonance follows binding to a sensor surface in real time, without labels.

Experiment [2] deals with T1, HGFR protein extracellular domain with …. Nature of the experiment: flow cytometry on HGFR CHO-S stably transfected cells, R-PE goat anti-human (H+L) detection. An excerpt:
(§3) The binding activity of antigen-binding molecules specifically binding to HGFR and EGFR to cells was detected using a flow cytometer. EGFR CHO-S stably transfected cell strain, HGFR CHO-S stably transfected cell strain, and H1975-HGF or MKN-45 tumor cell strain at 1×10⁶ cells/mL were blocked with 1% BSA PBS buffer, followed by the addition of diluted antibody samples at different concentrations (C25 was a negative control, which was an IgGI antibody protein of irrelevant targets, the same applied hereinafter), and the mixtures were incubated for 1 h. After the mixtures were washed twice, R-PE-goat anti-human (H+L) antibody (Invitrogen, CAT #H10104) was added, and the mixtures were incubated for 0.5 h. After the plate was washed twice, fluorescence signals were read using a flow cytometer.

For experiment [3] the target is unchanged. Nature of the experiment: SPR Biacore T200. How it is done: as §1, §2
The target is the same in experiment [4]. Nature of the experiment: competition ELISA, blocks bio-HGF-His on coated HGFR-His. How it is done:
The ability of the antibodies to block HGF/HGFR was tested by ELISA. 5 μg/mL HGFR-His (for the sequence, see SEQ ID NO: 43) was coated overnight at 4° C. and then blocked. […] After the plate was washed, horseradish peroxidase-streptavidin (Jackson, 016-030-084) was added, and the plate was incubated for 1 h. After the plate was washed, a tetramethylbenzidine solution was added for color development. Finally, a stop solution was added. OD450 values were measured on a microplate reader.
On the technique in general: In an ELISA, binding on a coated surface is turned into a signal by an enzyme label.

Experiment [5] concerns the target T2, human EGFR protein extracellular domain with the His tag (human, UniProt P00533 25-645).
T2 construct: also called EGFR-His
Put plainly: SPR Biacore T200, antibody captured on Protein A, antigen in flow, 1:1 fit. How it is done:
as §1, §2

Experiment [6] has as its target T2, human EGFR protein extracellular domain …. Put plainly: flow cytometry on EGFR CHO-S stably transfected cells, R-PE goat anti-human (H+L) detection.
Excerpt: as §3

Experiment [7] shares this target. Put plainly: competition ELISA, blocks EGF-mFc on captured EGFR-His. How it is done: 1 μg/mL rabbit anti-His antibody (GenScript, A01857) was coated overnight at 4° C. and then blocked. After the plate was washed, 2 μg/mL EGFR-His (SEQ ID NO: 42) was added, and the plate was incubated for 1 h. […] After the plate was washed, a tetramethylbenzidine solution was added for color development. Finally, a stop solution was added. OD450 values were measured on a microplate reader.

B1: Ab10.1 (antibody, V domains shown)
VH: QVQLVESGGGVVQPGRSLRLSCAASGFSLSDYGVHWVRQAPGKGLEWLAVIWSGGSTNYADAFVSRLTISKDNSKNTVYLQMNSLRAEDTAVYYCARNHDNPYIYAMDYWGQGTTVTVSS
VL: DIVLTQSPDSLAVSLGERATINCRADKSVSTSTYNYLHWYQQKPGQPPKLLIYRGSFLATGVPDRFSGSGSGTDFTLTISSLQAEDVAVYYCQHSRDLPPTFGQGTKLEIK
notes: CDR mutant of Ab10
Turning to B1, in experiment [1], the Kd – broadly, the concentration at which binding is half-saturated – was determined as 7.56 nM; the koff (commonly the first-order rate constant of dissociation) came to 0.000309 s⁻¹; the kon (usually the rate constant with which the complex forms) came out at 40800 M⁻¹ s⁻¹. Moreover, the EC50 (read off the curve) (as a rule, the midpoint of the concentration-response curve) in experiment [2] is roughly 0.5 nM. Moreover, the “fold affinity against Ab10” value in experiment [3] was no less than 4 fold.

B2: Omab (antibody, V domains shown)
VH: EVQLVESGGGLVQPGGSLRLSCAASGYTFTSYWLHWVRQAPGKGLEWVGMIDPSNSDTRFNPNFKDRFTISADTSKNTAYLQMNSLRAEDTAVYYCATYRSYVTPLDYWGQGTLVTVSS
VL: DIQMTQSPSSLSASVGDRVTITCKSSQSLLYTSSQKNYLAWYQQKPGKAPKLLIYWASTRESGVPSRFSGSGSGTDFTLTISSLQPEDFATYYCQQYYAYPWTFGQGTKVEIK
notes: anti-HGFR antibody (WO2013003680A1); also called onartuzumab
Turning to B2, the “EC50 (read off the curve)” value in experiment [2] was roughly 0.4 nM.

B3: EM1 (bispecific antibody, human IgG1, kappa)
heavy 1: not shown
light 1: DIQLTQSPSSLSASVGDRVTITCRASQDISSALVWYQQKPGKAPKLLIYDASSLESGVPSRFSGSESGTDFTLTISSLQPEDFATYYCQQFNSYPLTFGGGTKVEIKGGGGSGGGGDIVLTQSPDSLAVSLGERATINCRADKSVSTSTYNYLHWYQQKPGQPPKLLIYRGSFLATGVPDRFSGSGSGTDFTLTISSLQAEDVAVYYCQHSRDLPPTFGQGTKLEIKRTVAAPSVFIFPPSDEQLKSGTASVVCLLNNFYPREAKVQWKVDNALQSGNSQESVTEQDSKDSTYSLSSTLTLSKADYEKHKVYACEVTHQGLSSPVTKSFNRGEC
heavy 2: EVQLVESGGGLVQPGGSLRLSCAASGYTFTSYWLHWVRQAPGKGLEWVGMIDPSNSDTRFNPNFKDRFTISADTSKNTAYLQMNSLRAEDTAVYYCATYRSYVTPLDYWGQGTLVTVSSGGGGSGIPPKIECLPIDISIDEGKVLTVASAFTGEPTPEVTWSTGGRKIHSQEQGRFHIENTDDSTTLTIKDVQKQDGGLYTLTLRNEFGSDSATVNIHIRSIDKTHTCPPCPAPELLGGPSVFLFPPKPKDTLMISRTPEVTCVVVDVSHEDPEVKFNWYVDGVEVHNAKTKPREEQYNSTYRVVSVLTVLHQDWLNGKEYKCKVSNKALPAPIEKTISKAKGQPREPQVCTLPPSREEMTKNQVSLSCAVKGFYPSDIAVEWESNGQPENNYKTTPPVLDSDGSFFLVSKLTVDKSRWQQGNVFSCSVMHEALHNHYTQKSLSLSPGK
light 2: DIQMTQSPSSLSASVGDRVTITCKSSQSLLYTSSQKNYLAWYQQKPGKAPKLLIYWASTRESGVPSRFSGSGSGTDFTLTISSLQPEDFATYYCQQYYAYPWTFGQGTKVEIKGGGGSSGAPRFLTRPKASVVSVGKDATLSCQIVGNPFPQVSWEKDKQPVTAGVRFRLAQDGDLYRLKILDLQLSDSGQYVCRARNAHGEAFACLGLQVDAEA
notes: Format 1: Zal.1 Fv on Ab10.1 Fab (knob) plus Omab Titin/Obscurin-substituted Fab (hole); four chains
Consider B3, for which the IC50 – broadly, the point on the concentration scale where inhibition reaches its midpoint – in experiment [4] is 0.25 µg/mL. In experiment [5], the dissociation constant Kd stood at 7.29 nM, the koff came to 0.00103 s⁻¹ and the association rate constant (kon) came out at 142000 M⁻¹ s⁻¹. In addition, in experiment [1], binding was characterised by a dissociation constant (Kd) of 2.26 nM, the koff came out at 0.000124 s⁻¹ and the kon stood at 54800 M⁻¹ s⁻¹. Moreover, the “EC50 (read off the curve)” value in experiment [6] was roughly 2 nM. This molecule returned an IC50 in experiment [7] of 2.37 µg/mL.

B4: EM2 (bispecific antibody, human IgG1, kappa)
heavy 1: not shown
light 1: DIQMTQSPSSLSASVGDRVTITCKSSQSLLYTSSQKNYLAWYQQKPGKAPKLLIYWASTRESGVPSRFSGSGSGTDFTLTISSLQPEDFATYYCQQYYAYPWTFGQGTKVEIKRTVAAPSVFIFPPSDEQLKSGTASVVCLLNNFYPREAKVQWKVDNALQSGNSQESVTEQDSKDSTYSLSSTLTLSKADYEKHKVYACEVTHQGLSSPVTKSFNRGEC
heavy 2: QVQLVESGGGVVQPGRSLRLSCAASGFTFSTYGMHWVRQAPGKGLEWVAVIWDDGSYKYYGDSVKGRFTISRDNSKNTLYLQMNSLRAEDTAVYYCARDGITMVRGVMKDYFDYWGQGTLVTVSSGGGGSGIPPKIECLPIDISIDEGKVLTVASAFTGEPTPEVTWSTGGRKIHSQEQGRFHIENTDDSTTLTIKDVQKQDGGLYTLTLRNEFGSDSATVNIHIRSIDKTHTCPPCPAPELLGGPSVFLFPPKPKDTLMISRTPEVTCVVVDVSHEDPEVKFNWYVDGVEVHNAKTKPREEQYNSTYRVVSVLTVLHQDWLNGKEYKCKVSNKALPAPIEKTISKAKGQPREPQVCTLPPSREEMTKNQVSLSCAVKGFYPSDIAVEWESNGQPENNYKTTPPVLDSDGSFFLVSKLTVDKSRWQQGNVFSCSVMHEALHNHYTQKSLSLSPGK
light 2: DIQLTQSPSSLSASVGDRVTITCRASQDISSALVWYQQKPGKAPKLLIYDASSLESGVPSRFSGSESGTDFTLTISSLQPEDFATYYCQQFNSYPLTFGGGTKVEIKGGGGSSGAPRFLTRPKASVVSVGKDATLSCQIVGNPFPQVSWEKDKQPVTAGVRFRLAQDGDLYRLKILDLQLSDSGQYVCRARNAHGEAFACLGLQVDAEA
notes: Format 2: Omab Fab (knob) plus Zal.1 Titin/Obscurin-substituted Fab (hole); four chains
B4 gave a Kd in experiment [1] of 3.04 nM.
